# B1: I2S control (untagged human iduronate-2-sulfatase, purified protein) (enzyme)
# chain: SETQANSTTDALNVLLIIVDDLRPSLGCYGDKLVRSPNIDQLASHSLLFQNAFAQQAVCAPSRVSFLTGRRPDTTRLYDFNSYWRVHAGNFSTIPQYFKENGYVTMSVGKVFHPGISSNHTDDSPYSWSFPPYHPSSEKYENTKTCRGPDGELHANLLCPVDVLDVPEGTLPDKQSTEQAIQLLEKMKTSASPFFLAVGYHKPHIPFRYPKEFQKLYPLENITLAPDPEVPDGLPPVAYNPWMDIRQREDVQALNISVPYGPIPVDFQRKIRQSYFASVSYLDTQVGRLLSALDDLQLANSTIIAFTSDHGWALGEHGEWAKYSNFDVATHVPLIFYVPGRTASLPEAGEKLFPYLDPFDSASQLMEPGRQSMDLVELVSLFPTLAGLAGLQVPPRCPVPSFHVELCREGKNLLKHFRFRDLEEDPYLPGNPRELIAYSQYPRPSDIPQWNSDKPSLKDIKIMGYSIRTIDYRYTVWVGFNPDEFLANFSDIHAGELYFVDSDPLQDHNMYNDSQGGDLFQLLMP
# notes: Negative control in the SPR assay; also called idursulfase; IDS
# Key:
# [1] = target: T1, Recombinant Human TfR Protein (R&D Systems; Catalog #2474-TR) (human, UniProt P02786 89-760); experiment: SPR (Biacore 8K+), I2S immobilized on CM5 by amine coupling, TfR as analyte
# T1 construct: Bought reagent, injected as analyte in SPR; also called hTfR1; hTFR1
# T1 sequence (P02786 89-760 limits assumed): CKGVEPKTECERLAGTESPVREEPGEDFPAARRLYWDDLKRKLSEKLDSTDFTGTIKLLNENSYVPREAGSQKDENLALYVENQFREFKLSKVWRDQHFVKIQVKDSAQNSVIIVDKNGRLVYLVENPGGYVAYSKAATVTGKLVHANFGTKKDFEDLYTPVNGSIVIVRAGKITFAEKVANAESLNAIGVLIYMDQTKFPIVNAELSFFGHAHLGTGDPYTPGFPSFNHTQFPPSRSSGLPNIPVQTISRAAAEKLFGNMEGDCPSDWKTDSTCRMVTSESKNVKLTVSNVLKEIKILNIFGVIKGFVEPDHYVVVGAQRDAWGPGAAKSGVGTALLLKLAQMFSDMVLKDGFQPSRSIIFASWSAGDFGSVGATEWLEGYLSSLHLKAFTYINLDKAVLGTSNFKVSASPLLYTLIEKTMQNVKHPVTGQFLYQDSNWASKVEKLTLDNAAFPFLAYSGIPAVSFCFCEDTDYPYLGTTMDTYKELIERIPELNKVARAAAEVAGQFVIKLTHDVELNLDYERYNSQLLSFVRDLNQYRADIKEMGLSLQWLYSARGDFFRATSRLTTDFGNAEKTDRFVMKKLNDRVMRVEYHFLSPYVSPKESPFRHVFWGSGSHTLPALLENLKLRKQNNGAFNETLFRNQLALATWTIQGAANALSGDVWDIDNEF
# Procedure: (§1) Surface Plasmon Resonance (SPR) assays: Binding affinity between human/mouse receptor with Iduronate 2 Sulfatase or idursulfase (I2S) tagged with an anti-transferrin receptor binding single domain antibody (VHH) was determined using the Biacore 8K+ instrument (Cytiva; Danaher Corporation). In this experiment, samples were immobilized on a series S sensor chip CM5 (Catalog #29104988) via amine coupling. Samples immobilized (ligand) were i) I2S-VHH ii) VHH-I2S iii) I2S as negative control iv) Holo transferrin peptide as positive control. 1 ug/mL of ligand, reconstituted in Acetate pH 4.0, was immobilized on individual flow cells for 420 s, yielding a final immobilization level of approximately 350 Response Units. Recombinant Human TfR Protein (R&D Systems; Catalog #2474-TR) and Mouse TfR1 (TR06671428-001; Takeda) were injected on this surface (as analyte) with a concentration range of 5, 2.5, 1.25, 0.625 & 0.156 ug/mL. Analyte series was injected for 120 s, followed by a dissociation phase for a duration that yields at least 10% dissociation of analyte. Resulting sensograms were analyzed using the 1:1 Binding Model.
# [2] = target: T2, Mouse TfR1 (TR06671428-001; Takeda) (mouse, UniProt Q62351 89-763); experiment: SPR (Biacore 8K+), I2S immobilized on CM5 by amine coupling, TfR1 as analyte
# T2 construct: Injected as analyte in SPR; also called mTFR1; mouse transferrin receptor 1
# T2 sequence (Q62351 89-763 limits assumed): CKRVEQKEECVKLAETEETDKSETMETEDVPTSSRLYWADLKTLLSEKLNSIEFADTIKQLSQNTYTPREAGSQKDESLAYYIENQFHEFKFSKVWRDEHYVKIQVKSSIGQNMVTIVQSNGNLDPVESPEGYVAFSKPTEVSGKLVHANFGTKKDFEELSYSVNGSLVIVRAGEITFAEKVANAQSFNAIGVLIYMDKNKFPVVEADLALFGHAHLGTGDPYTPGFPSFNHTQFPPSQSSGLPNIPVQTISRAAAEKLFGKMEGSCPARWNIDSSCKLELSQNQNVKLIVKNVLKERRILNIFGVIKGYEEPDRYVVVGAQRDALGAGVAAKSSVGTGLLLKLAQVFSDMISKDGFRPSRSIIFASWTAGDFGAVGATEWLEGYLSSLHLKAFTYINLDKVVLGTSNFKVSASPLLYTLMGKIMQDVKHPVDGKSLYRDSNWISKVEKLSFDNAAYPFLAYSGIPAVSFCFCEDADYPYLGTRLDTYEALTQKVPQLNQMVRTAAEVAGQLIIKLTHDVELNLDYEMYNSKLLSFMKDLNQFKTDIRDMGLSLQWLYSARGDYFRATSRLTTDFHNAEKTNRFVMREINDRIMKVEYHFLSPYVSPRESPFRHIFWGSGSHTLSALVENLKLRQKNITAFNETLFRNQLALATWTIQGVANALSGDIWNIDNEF
# Procedure: as §1
binder,measurement,setting,value
B1,binding result,[1],no binding (tested: analyte 0.156-5 ug/mL)
same,binding result,[2],no binding (tested: analyte 0.156-5 ug/mL)
